Here are results for two proteins from PMC12603323.

Data set [1] in a line: HA-Ub, MYC-β-catenin IP, 293T. As to conditions: glycan lost; control: SPOP-WT.
Data set [2] is described as follows: HA-Ub co-transfection, IP, 293T. As to conditions: glycan lost; control: SPOP-WT.
Another data set is described as follows: WB, CRC cells. To be noted: glycan lost; control: SPOP-WT.
Another data set can be described thus: WB of SPOP, HCT116. To be noted: glycan lost; control: untreated cells.

B1: SPOP (Speckle-type POZ protein): S58/59 A (protein)
parent chain: MSRVPSPPPPAEMSSGPVAESWCYTQIKVVKFSYMWTINNFSFCREEMGEVIKSSTFSSGANDKLKWCLRVNPKGLDEESKDYLSLYLLLVSCPKSEVRAKFKFSILNAKGEETKAMESQRAYRFVQGKDWGFKKFIRRDFLLDEANGLLPDDKLTLFCEVSVVQDSVNISGQNTMNMVKVPECRLADELGGLWENSRFTDCCLCVAGQEFQAHKAILAARSPVFSAMFEHEMEESKKNRVEINDVEPEVFKEMMCFIYTGKAPNLDKMADDLLAAADKYALERLKVMCEDALCSNLSVENAAEILILADLHSADQLKTQAVDFINYHASDVLETSGWKSMVVSHPHLVAEAYRSLASAQCPFLGPPRKRLKQS
As for B1, in data set [1], the “other: substrate β-catenin ubiquitination” value is “increases”. The “other: ubiquitination of SPOP” value in data set [2] is recorded as “increases”. Also, in the data set “WB, CRC cells”, the “other: substrate β-catenin protein level” value was “decreases”.

B2: SPOP (Speckle-type POZ protein): OSMI-1 (protein)
parent chain: B1 parent chain
For the protein B2, the expression_or_secretion result in “WB of SPOP, HCT116” is reported as “increases”.
